In patent EP4745153A1, “GLP-1, GIP AND GCG RECEPTOR […] USE THEREOF” (Jiangsu Hengrui Pharmaceuticals Co., Ltd., priority 2023, dated 2025):
Where two headings read alike, the source gives them in different places. Starred links: 1 amine or outer side, 2 acyl side, 3 side chain; linkers in the order of their positions; H or OH if unused. Non-standard residues stand in square brackets, D forms with d. Groups on a side chain read outwards from the residue. No end group written: not given here. *: point of attachment. C20 diacid = O=C(O)CCCCCCCCCCCCCCCCCCC(=O)*; γGlu = O=C(O)[C@H](CCC(=O)[*:2])N[*:1]; αMeK = C[C@](N)(CCCCN)C(=O)O; Iva = CC[C@](C)(N)C(=O)O; AEEA = NCCOCCOCC(=O)O; Aib = CC(C)(N)C(=O)O

T1: human glucose-dependent insulinotropic polypeptide receptor (human, UniProt P48546 22-466)
T1 sequence (looked up): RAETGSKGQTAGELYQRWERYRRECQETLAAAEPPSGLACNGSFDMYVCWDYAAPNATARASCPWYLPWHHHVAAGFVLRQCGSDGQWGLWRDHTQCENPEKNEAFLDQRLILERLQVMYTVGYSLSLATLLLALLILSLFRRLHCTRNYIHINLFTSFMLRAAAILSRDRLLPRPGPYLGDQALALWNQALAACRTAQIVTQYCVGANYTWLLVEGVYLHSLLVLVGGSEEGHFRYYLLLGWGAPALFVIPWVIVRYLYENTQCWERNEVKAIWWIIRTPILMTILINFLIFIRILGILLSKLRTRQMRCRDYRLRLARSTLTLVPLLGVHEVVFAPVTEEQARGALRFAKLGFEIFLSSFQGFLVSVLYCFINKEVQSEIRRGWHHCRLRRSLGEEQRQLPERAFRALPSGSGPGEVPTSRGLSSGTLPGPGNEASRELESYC


Assays:
Experiment in all cases: cell-based or functional assay
[1] = biological target: human glucagon receptor (human, UniProt P47871 26-477)
human glucagon receptor, sequence (P47871 26-477): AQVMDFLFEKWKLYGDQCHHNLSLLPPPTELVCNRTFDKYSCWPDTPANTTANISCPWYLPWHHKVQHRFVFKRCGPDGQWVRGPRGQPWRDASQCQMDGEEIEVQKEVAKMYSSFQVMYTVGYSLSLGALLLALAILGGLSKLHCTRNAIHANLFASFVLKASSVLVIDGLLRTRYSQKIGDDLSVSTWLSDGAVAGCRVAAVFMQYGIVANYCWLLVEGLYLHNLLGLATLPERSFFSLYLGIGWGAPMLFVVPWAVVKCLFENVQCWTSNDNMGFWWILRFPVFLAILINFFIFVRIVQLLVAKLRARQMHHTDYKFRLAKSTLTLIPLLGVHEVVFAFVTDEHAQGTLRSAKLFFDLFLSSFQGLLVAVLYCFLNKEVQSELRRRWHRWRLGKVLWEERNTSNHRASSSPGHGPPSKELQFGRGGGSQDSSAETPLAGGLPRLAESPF

[2] = biological target: T1, human glucose-dependent insulinotropic …
[3] = biological target: human glucagon-like peptide-1 receptor (human, UniProt P43220 24-463)
[4] = biological target: T1, human glucose-dependent insulinotropic …; remark: listed apart in the source

Binder	Activity against human GCGR (EC50 nM) [1] [nM]	Activity against human GIPR (EC50 nM) [2] [nM]	Activity against human GLP-1R (EC50 nM) [3] [nM]	Activity against human GIPR (EC50 nM) [4] [nM]
H[Aib]HGTFTSDYS[αMeK]YLEK([AEEA-AEEA-γGlu-C20 diacid])KAAQEFVEWLIAGGPSSGAPPPS-NH2 (N-terminus assumed; SMILES CC[C@H](C)[C@H](NC(=O)[C@H](CC(C)C)NC(=O)[C@H](Cc1c[nH]c2ccccc12)NC(=O)[C@H](CCC(=O)O)NC(=O)[C@@H](NC(=O)[C@H](Cc1ccccc1)NC(=O)[C@H](CCC(=O)O)NC(=O)[C@H](CCC(N)=O)NC(=O)[C@H](C)NC(=O)[C@H](C)NC(=O)[C@H](CCCCN)NC(=O)[C@H](CCCCNC(=O)COCCOCCNC(=O)COCCOCCNC(=O)CC[C@H](NC(=O)CCCCCCCCCCCCCCCCCCC(=O)O)C(=O)O)NC(=O)[C@H](CCC(=O)O)NC(=O)[C@H](CC(C)C)NC(=O)[C@H](Cc1ccc(O)cc1)NC(=O)[C@](C)(CCCCN)NC(=O)[C@H](CO)NC(=O)[C@H](Cc1ccc(O)cc1)NC(=O)[C@H](CC(=O)O)NC(=O)[C@H](CO)NC(=O)[C@@H](NC(=O)[C@H](Cc1ccccc1)NC(=O)[C@@H](NC(=O)CNC(=O)[C@H](Cc1c[nH]cn1)NC(=O)C(C)(C)NC(=O)[C@@H](N)Cc1c[nH]cn1)[C@@H](C)O)[C@@H](C)O)C(C)C)C(=O)N[C@@H](C)C(=O)NCC(=O)NCC(=O)N1CCC[C@H]1C(=O)N[C@@H](CO)C(=O)N[C@@H](CO)C(=O)NCC(=O)N[C@@H](C)C(=O)N1CCC[C@H]1C(=O)N1CCC[C@H]1C(=O)N1CCC[C@H]1C(=O)N[C@@H](CO)C(N)=O) [Compound No. 0111]	0.552	0.024		
H[Aib]HGTFTSDYS[αMeK]YLEK([AEEA-AEEA-γGlu-C20 diacid])KAQQEFVEWLLAGGPSSGAPPPS-NH2 [Compound No. 0113]	5.91	0.015		
H[Aib]HGTFTSDYS[αMeK]LLEK([AEEA-AEEA-γGlu-C20 diacid])QAA[Iva]EFVEWLLAGGPSSGAPPPS-NH2 [Compound No. 0128]			0.04	0.0005
